Reference: the supplement of paper PMC10567573

B1: EPB41L3 (parent)
chain: SDYISEFRFAPNHTKELEDKVIEL

Variants of: B1
Experiment: protein stability index of a GFP-peptide fusion (GPS, HEK-293T) (PSI 1-6); higher = more stable
Settings: c terminus: a fixed tail appended
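Note: lentivirally expressed fusions sorted by FACS into six bins by GFP to DsRed ratio, PSI derived from sequencing read proportions per bin multiplied by bin number.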

Compared with SDYISEFRQAPNHTKELEDKVIEL [F9Q], SDYISEFRSAPNHTKELEDKVIEL [F9S] is higher in protein stability index: 4.63 for the first, 4.79 for the second.

Going from SDYISEFRLAPNHTKELEDKVIEL [F9L] to SDYISEFRIAPNHTKELEDKVIEL [F9I], the protein stability index falls from 4.09 to 3.83.

Compared with SDYISEFRPAPNHTKELEDKVIEL [F9P], SDYISEFREAPNHTKELEDKVIEL [F9E] is higher in protein stability index: 4.76 for the first, 4.97 for the second.

Compared with SDYISEFRRAPNHTKELEDKVIEL [F9R], SDYISEFRVAPNHTKELEDKVIEL [F9V] is lower in protein stability index: 4.58 for the first, 4.44 for the second.

First: SDYISEFRYAPNHTKELEDKVIEL [F9Y]
Second: SDYISEFRDAPNHTKELEDKVIEL [F9D]
The protein stability index of the first is lower: 2.25 for the first, 4.97 for the second.

First: SDYISEFRMAPNHTKELEDKVIEL [F9M]
Second: SDYISEFRTAPNHTKELEDKVIEL [F9T]
The protein stability index of the first is lower: 4.03 for the first, 4.24 for the second.

First: SDYISEFRNAPNHTKELEDKVIEL [F9N]
Second: SDYISEFRWAPNHTKELEDKVIEL [F9W]
The protein stability index of the first is higher: 4.59 for the first, 3.54 for the second.

Compared with SDYISEFRAAPNHTKELEDKVIEL [F9A], SDYISEFRFAPNSTKELEDKVIEL [H13S] is lower in protein stability index: 4.79 for the first, 2.06 for the second.

Going from SDYISEFRFAPNVTKELEDKVIEL [H13V] to SDYISEFRFAPNKTKELEDKVIEL [H13K], the protein stability index rises from 1.59 to 2.29.

Going from SDYISEFRFAPNPTKELEDKVIEL [H13P] to SDYISEFRFAPNCTKELEDKVIEL [H13C], the protein stability index rises from 1.99 to 2.19.

Going from SDYISEFRFAPNATKELEDKVIEL [H13A] to SDYISEFRFAPNWTKELEDKVIEL [H13W], the protein stability index falls from 2.84 to 1.72.

Compared with SDYISEFRFAPNQTKELEDKVIEL [H13Q], SDYISEFRFAPNYTKELEDKVIEL [H13Y] is lower in protein stability index: 2.46 for the first, 2.35 for the second.

Compared with SDYISEFRFAPNITKELEDKVIEL [H13I], SDYISEFRFAPNETKELEDKVIEL [H13E] is higher in protein stability index: 2.28 for the first, 3.3 for the second.

First: SDYISEFRFAPNGTKELEDKVIEL [H13G]
Second: SDYISEFRFAPNNTKELEDKVIEL [H13N]
The protein stability index of the first is lower: 2.16 for the first, 2.36 for the second.

Going from SDYISEFRFAPNRTKELEDKVIEL [H13R] to SDYISEFRFAPNMTKELEDKVIEL [H13M], the protein stability index rises from 1.94 to 2.06.

Compared with SDYISEFRFAPNLTKELEDKVIEL [H13L], SDYISEFRFAPNFTKELEDKVIEL [H13F] is lower in protein stability index: 2.31 for the first, 1.92 for the second.

Going from SDYISEFRFAPNDTKELEDKVIEL [H13D] to SDYISEFRFAPNTTKELEDKVIEL [H13T], the protein stability index falls from 3.71 to 2.08.

Compared with SDYISEFRFAPNHEKELEDKVIEL [T14E], SDYISEFRFAPNHKKELEDKVIEL [T14K] is lower in protein stability index: 2.74 for the first, 1.4 for the second.

Compared with SDYISEFRFAPNHGKELEDKVIEL [T14G], SDYISEFRFAPNHAKELEDKVIEL [T14A] is higher in protein stability index: 1.88 for the first, 2.16 for the second.

First: SDYISEFRFAPNHYKELEDKVIEL [T14Y]
Second: SDYISEFRFAPNHSKELEDKVIEL [T14S]
The protein stability index of the first is higher: 2.06 for the first, 1.76 for the second.

Going from SDYISEFRFAPNHHKELEDKVIEL [T14H] to SDYISEFRFAPNHIKELEDKVIEL [T14I], the protein stability index rises from 1.68 to 2.7.

Compared with SDYISEFRFAPNHCKELEDKVIEL [T14C], SDYISEFRFAPNHNKELEDKVIEL [T14N] is higher in protein stability index: 2.02 for the first, 2.25 for the second.

Compared with SDYISEFRFAPNHVKELEDKVIEL [T14V], SDYISEFRFAPNHRKELEDKVIEL [T14R] is lower in protein stability index: 2.42 for the first, 2.08 for the second.

Compared with SDYISEFRFAPNHQKELEDKVIEL [T14Q], SDYISEFRFAPNHDKELEDKVIEL [T14D] is lower in protein stability index: 2.55 for the first, 2.49 for the second.

First: SDYISEFRFAPNHFKELEDKVIEL [T14F]
Second: SDYISEFRFAPNHMKELEDKVIEL [T14M]
The protein stability index of the first is lower: 1.97 for the first, 2.65 for the second.

First: SDYISEFRFAPNHLKELEDKVIEL [T14L]
Second: SDYISEFRFAPNHPKELEDKVIEL [T14P]
The protein stability index of the first is higher: 2.23 for the first, 1.37 for the second.

Compared with SDYISEFRFAPNHWKELEDKVIEL [T14W], SDYISEFRFAPNHTMELEDKVIEL [K15M] is higher in protein stability index: 2.18 for the first, 2.25 for the second.

Going from SDYISEFRFAPNHTFELEDKVIEL [K15F] to SDYISEFRFAPNHTGELEDKVIEL [K15G], the protein stability index falls from 2.15 to 2.1.

First: SDYISEFRFAPNHTYELEDKVIEL [K15Y]
Second: SDYISEFRFAPNHTWELEDKVIEL [K15W]
The protein stability index of the first is lower: 1.63 for the first, 1.77 for the second.

Going from SDYISEFRFAPNHTPELEDKVIEL [K15P] to SDYISEFRFAPNHTIELEDKVIEL [K15I], the protein stability index falls from 2.29 to 1.9.

Going from SDYISEFRFAPNHTTELEDKVIEL [K15T] to SDYISEFRFAPNHTSELEDKVIEL [K15S], the protein stability index falls from 2.1 to 2.07.

First: SDYISEFRFAPNHTNELEDKVIEL [K15N]
Second: SDYISEFRFAPNHTRELEDKVIEL [K15R]
The protein stability index of the first is higher: 2.12 for the first, 1.74 for the second.

Compared with SDYISEFRFAPNHTDELEDKVIEL [K15D], SDYISEFRFAPNHTVELEDKVIEL [K15V] is lower in protein stability index: 2.49 for the first, 2.04 for the second.

Going from SDYISEFRFAPNHTQELEDKVIEL [K15Q] to SDYISEFRFAPNHTHELEDKVIEL [K15H], the protein stability index falls from 2.34 to 1.97.

First: SDYISEFRFAPNHTCELEDKVIEL [K15C]
Second: SDYISEFRFAPNHTAELEDKVIEL [K15A]
The protein stability index of the first is higher: 2.25 for the first, 1.9 for the second.

First: SDYISEFRFAPNHTLELEDKVIEL [K15L]
Second: SDYISEFRFAPNHTEELEDKVIEL [K15E]
The protein stability index of the first is lower: 1.75 for the first, 3.46 for the second.

Compared with SDYISEFRFAPNHTKECEDKVIEL [L17C], SDYISEFRFAPNHTKEAEDKVIEL [L17A] is lower in protein stability index: 2.05 for the first, 1.87 for the second.

Going from SDYISEFRFAPNHTKEDEDKVIEL [L17D] to SDYISEFRFAGNHTKELEDKVIEL [P11G], the protein stability index falls from 2.51 to 2.44.

Compared with SDYISEFRFAQNHTKELEDKVIEL [P11Q], SDYISEFRFAYNHTKELEDKVIEL [P11Y] is lower in protein stability index: 2.57 for the first, 1.8 for the second.

Compared with SDYISEFRFAKNHTKELEDKVIEL [P11K], SDYISEFRFAENHTKELEDKVIEL [P11E] is higher in protein stability index: 2.3 for the first, 4.36 for the second.

Going from SDYISEFRFANNHTKELEDKVIEL [P11N] to SDYISEFRFAMNHTKELEDKVIEL [P11M], the protein stability index rises from 2.26 to 2.65.

Compared with SDYISEFRFAWNHTKELEDKVIEL [P11W], SDYISEFRFACNHTKELEDKVIEL [P11C] is lower in protein stability index: 2.33 for the first, 2.12 for the second.

Going from SDYISEFRFADNHTKELEDKVIEL [P11D] to SDYISEFRFASNHTKELEDKVIEL [P11S], the protein stability index falls from 4.29 to 2.26.

Compared with SDYISEFRFAINHTKELEDKVIEL [P11I], SDYISEFRFARNHTKELEDKVIEL [P11R] is higher in protein stability index: 2.49 for the first, 2.64 for the second.

First: SDYISEFRFAHNHTKELEDKVIEL [P11H]
Second: SDYISEFRFAANHTKELEDKVIEL [P11A]
The protein stability index of the first is lower: 1.88 for the first, 2.68 for the second.

Compared with SDYISEFRFAVNHTKELEDKVIEL [P11V], SDYISEFRFAFNHTKELEDKVIEL [P11F] is lower in protein stability index: 2.23 for the first, 2.16 for the second.

Going from SDYISEFRFALNHTKELEDKVIEL [P11L] to SDYISEFRFATNHTKELEDKVIEL [P11T], the protein stability index rises from 2.11 to 2.82.
